Laboratory results from US20220056119A1 (Regeneron, published 2022).
Blank lines part the entries; values can stand above or below the binder they belong to.

Legend:
[1] = target: T1, Activin A (R&D Systems, #338-AC) (human, UniProt P08476 311-426); experiment: SPR blocking: 5 nM Activin A + 7.50 nM binder over hActRIIB-hFc (Control 4) surface
T1 construct: Bought protein; also called inhibin-βA dimer; homodimer of two βA subunits
T1 sequence: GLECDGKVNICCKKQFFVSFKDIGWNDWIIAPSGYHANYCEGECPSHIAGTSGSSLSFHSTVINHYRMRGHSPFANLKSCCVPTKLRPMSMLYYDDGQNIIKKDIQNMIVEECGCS
Description: (§1) The binding signal (RU) was measured at 150 seconds after the start of the injection, and this signal was subtracted by the measured RU value for a negative control reference surface to determine the specific binding signal.

[2] = target: T1, Activin A (R&D Systems, #338-AC); experiment: SPR blocking: 5 nM Activin A + 0.94 nM binder over hActRIIB-hFc (Control 4) surface
Description: as §1

[3] = target: T1, Activin A (R&D Systems, #338-AC); experiment: SPR blocking: 5 nM Activin A + 0.00 nM binder over hActRIIB-hFc (Control 4) surface
Description: as §1

[4] = target: T1, Activin A (R&D Systems, #338-AC); experiment: SPR blocking: 5 nM Activin A + 1.88 nM binder over hActRIIB-hFc (Control 4) surface
Description: as §1

[5] = target: T1, Activin A (R&D Systems, #338-AC); experiment: SPR blocking: 5 nM Activin A + 3.75 nM binder over hActRIIB-hFc (Control 4) surface
[6] = target: T1, Activin A (R&D Systems, #338-AC); experiment: SPR blocking: 5 nM Activin A + 15 nM binder over hActRIIB-hFc (Control 4) surface
Description: as §1

[7] = target: T1, Activin A (R&D Systems, #338-AC); experiment: SPR blocking: 5 nM Activin A + 30 nM binder over hActRIIB-hFc (Control 4) surface
Description: as §1

[8] = target: T1, Activin A (R&D Systems, #338-AC); experiment: SPR blocking: 5 nM Activin A + 60 nM binder over hActRIIB-hFc (Control 4) surface
Description: as §1

[9] = target: T2, Activin B (human, UniProt P09529 293-407); experiment: cell-based or functional assay
T2 chain: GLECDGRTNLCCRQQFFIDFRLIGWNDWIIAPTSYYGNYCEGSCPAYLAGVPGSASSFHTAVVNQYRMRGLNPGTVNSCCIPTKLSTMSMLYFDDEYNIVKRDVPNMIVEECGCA

[10] = target: T3, Activin A (human, UniProt P08476 311-426); experiment: cell-based or functional assay
T3 sequence: T1 sequence

[11] = target: T3, Activin A; experiment: SPR, 5 nM Activin A + 30 nM binder over Follistatin-288 surface
Description: as §1

[12] = target: T3, Activin A; experiment: SPR, 5 nM Activin A + 7.5 nM binder over Follistatin-288 surface
Description: as §1

[13] = target: T3, Activin A; experiment: SPR, 5 nM Activin A + 0.94 nM binder over Follistatin-288 surface
Description: as §1

[14] = target: T3, Activin A; experiment: SPR, 5 nM Activin A + 7.50 nM binder over hActRIIA-hFc surface
Description: as §1

[15] = target: T3, Activin A; experiment: SPR, 5 nM Activin A + 0 nM binder (no inhibitor) over Follistatin-288 surface
Description: as §1

[16] = target: T3, Activin A; experiment: SPR, 5 nM Activin A + 1.88 nM binder over hActRIIA-hFc surface
Description: as §1

[17] = target: T3, Activin A; experiment: SPR, 5 nM Activin A + 3.75 nM binder over Follistatin-288 surface
Description: as §1

[18] = target: T3, Activin A; experiment: SPR, 5 nM Activin A + 3.75 nM binder over hActRIIA-hFc surface
Description: as §1

[19] = target: T3, Activin A; experiment: SPR, 5 nM Activin A + 30 nM binder over hActRIIA-hFc surface
Description: as §1

[20] = target: T3, Activin A; experiment: SPR, 5 nM Activin A + 60 nM binder over Follistatin-288 surface
Description: as §1

[21] = target: T3, Activin A; experiment: SPR, 5 nM Activin A + 1.88 nM binder over Follistatin-288 surface
Description: as §1

[22] = target: T3, Activin A; experiment: SPR, 5 nM Activin A + 0.00 nM binder (no inhibitor) over hActRIIA-hFc surface
Description: as §1

[23] = target: T4, Activin AC (human, UniProt P55103 237-352); experiment: cell-based or functional assay
T4 sequence 1: T1 sequence
T4 sequence 2: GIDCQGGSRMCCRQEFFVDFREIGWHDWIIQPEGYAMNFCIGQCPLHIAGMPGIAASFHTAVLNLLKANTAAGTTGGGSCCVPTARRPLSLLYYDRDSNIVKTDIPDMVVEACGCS

[24] = target: T5, Activin AB (human, UniProt P08476 311-426; P09529 293-407); experiment: cell-based or functional assay
T5 chain 1: T1 sequence
T5 chain 2: T2 chain

[25] = target: T3, Activin A; experiment: SPR, 5 nM Activin A + 15 nM binder over Follistatin-288 surface
Description: as §1

[26] = target: T3, Activin A; experiment: SPR, 5 nM Activin A + 60 nM binder over hActRIIA-hFc surface
Description: as §1

[27] = target: T3, Activin A; experiment: SPR, 5 nM Activin A + 15 nM binder over hActRIIA-hFc surface
Description: as §1

[28] = target: T3, Activin A; experiment: SPR, 5 nM Activin A + 0.94 nM binder over hActRIIA-hFc surface
Description: as §1

B1: H4H10436P2 (antibody, human IgG4, V domains shown)
VH: QVQLVESGGGVVQPGRSLRLTCVASGFTVSSYGMHWVRQAPGKGLEWVAVMFYDESKKYYADSVKGRFTISRDNSKNTLYLQMNSLRVEDTAVYYCARDEQLDFEYWGQGTLVTVSS
VL: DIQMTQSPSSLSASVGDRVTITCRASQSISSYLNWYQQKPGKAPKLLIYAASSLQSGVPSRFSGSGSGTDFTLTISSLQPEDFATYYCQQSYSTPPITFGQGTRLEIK
- % bound RU w/ no inhibitor [1]: 3%
- % bound RU w/ no inhibitor [2]: 80%
- % bound RU w/ no inhibitor [3]: 100%
- % bound RU w/ no inhibitor [4]: 60%
- % bound RU w/ no inhibitor [5]: 19%
- % bound RU w/ no inhibitor [6]: 2%
- % bound RU w/ no inhibitor [7]: 3%
- % bound RU w/ no inhibitor [8]: 4%

B2: H4H10423P (antibody, human IgG4, V domains shown)
VH: QVQLQQSGPGLLKPSQTLSLTCAISGDSVSSNSAAWSWIRQSPSRGLEWLGRTYYRANWFNDYALSVKSRITINPVTSTNHFSLQLHSVTPEDTAVYYCAREGALGYYFDSWGQGTLVTVSS
VL: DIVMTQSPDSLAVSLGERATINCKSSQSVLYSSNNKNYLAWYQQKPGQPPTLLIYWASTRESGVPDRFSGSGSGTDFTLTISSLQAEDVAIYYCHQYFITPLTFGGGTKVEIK
- % bound RU w/ no inhibitor [1]: 42%
- % bound RU w/ no inhibitor [2]: 93%
- % bound RU w/ no inhibitor [3]: 100%
- % bound RU w/ no inhibitor [4]: 78%
- % bound RU w/ no inhibitor [5]: 47%
- % bound RU w/ no inhibitor [6]: 42%
- % bound RU w/ no inhibitor [7]: 41%
- % bound RU w/ no inhibitor [8]: 41%

B3: H4H10429P (antibody, human IgG4, V domains shown)
VH: QVQLVESGGGVVQPGRSLRLSCVASGFTVSSYGIHWVRQAPGKGLEWVSVIWYDGRNKDYADSVKGRFTISRDNSKNTVYLEMKGLRAEDTALYYCARDKTGDFDSWGQGTLVTVSS
VL: DIQMTQSPSSLSASVGDRVTITCRASQNINSFLSWYQQKPGKAPKFLIYDASSIQSGAPSRFSGSGSGTDFTLTISSLQPEDFATYYCQQSYSSPFTFGQGTKLEIK
- % bound RU w/ no inhibitor [1]: 2%
- % bound RU w/ no inhibitor [2]: 87%
- % bound RU w/ no inhibitor [3]: 100%
- % bound RU w/ no inhibitor [4]: 67%
- % bound RU w/ no inhibitor [5]: 19%
- % bound RU w/ no inhibitor [6]: 2%
- % bound RU w/ no inhibitor [7]: 2%
- % bound RU w/ no inhibitor [8]: 3%

B5: H4H10442P2 (antibody, human IgG4, V domains shown)
VH: QVQLQESGPGLVKPSETLSITCTVSGGSFSSHFWTWIRQPPGKGLEWIGYLHYSGGTSYNPSLKSRVIISVDTSKNQFSLKLNSVTAADTAVYYCARARSGITFGGLIVPGSFDIWGQGTMVTVSS
VL: not shown
- % bound RU w/ no inhibitor [1]: 103%
- % bound RU w/ no inhibitor [2]: 110%
- % bound RU w/ no inhibitor [3]: 100%
- % bound RU w/ no inhibitor [4]: 106%
- % bound RU w/ no inhibitor [5]: 88%
- % bound RU w/ no inhibitor [6]: 115%
- % bound RU w/ no inhibitor [7]: 122%
- % bound RU w/ no inhibitor [8]: 124%

B7: H4H10433P2 (antibody, human IgG4, V domains shown)
VH: EVQLVESGGGLVQAGRSLRLSCEASGFTFDDYGMHWVRQGPGKGLEWVSGISWNSGNIDYADSVKGRFTISRDNAKTSLYLQMNSLKTDDTALYFCAKDAVGFNWNYFLFDYWGQGTLVTVSS
VL: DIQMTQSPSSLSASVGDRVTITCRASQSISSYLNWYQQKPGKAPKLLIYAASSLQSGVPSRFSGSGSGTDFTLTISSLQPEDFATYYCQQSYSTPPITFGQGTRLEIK
- IC50, inhibition of 50 pM Activin B in A204/CAGAx12-Luc luciferase bioassay [9]: 1e-07 M
- IC50, inhibition of 100 pM Activin A in A204/CAGAx12-Luc luciferase bioassay [10]: 1.5e-10 M

B9: H4H10430P (antibody, human IgG4, V domains shown)
VH: EVQLVESGGGLVQPGRSLRLSCKASGFAFDDFAMHWVRQAPGKGLEWVSGIVWNSGDIGYADSVKGRFTISRDNAKNSLYLQLNSLRTEDTALYFCVKDMVRGLMGFNYYGMDVWGQGTTVTVSS
VL: EIVLTQSPATLSLSPGERATLSCRASQTISTYLVWYRQRPGQAPSLLIYDASNRATDIPARFSGSGSGTDFTLTISSLEPEDFAVYYCQQRSNWPITFGQGTRLEIK
notes: also called mAb1
- % bound RU w/ no inhibitor [1]: 4%
- % bound RU w/ no inhibitor [2]: 80%
- % bound RU w/ no inhibitor [3]: 100%
- % bound RU w/ no inhibitor [4]: 62%
- % bound RU w/ no inhibitor [5]: 20%
- % bound RU w/ no inhibitor [6]: 3%
- % bound RU w/ no inhibitor [7]: 3%
- % bound RU w/ no inhibitor [8]: 3%

Other lines, results leading:

- % bound RU w/ no inhibitor [1]: 7%
- % bound RU w/ no inhibitor [2]: 79%
- % bound RU w/ no inhibitor [3]: 100%
- % bound RU w/ no inhibitor [4]: 58%
- % bound RU w/ no inhibitor [5]: 19%
- % bound RU w/ no inhibitor [6]: 4%
- % bound RU w/ no inhibitor [7]: 4%
- % bound RU w/ no inhibitor [8]: 4%
B4: H4H10440P2 (antibody, human IgG4, V domains shown)
VH: EVQLVESGGGVVQPGGSLRLSCAASTFTFDDFAMHWVRQAPGKGLEWVSLITGDGGSTYYADPVKGRFTISRDNSKNSLYLQMNSLRTEDTALYYCVKDWWIAARPDYYYYGMDVWGQGTTVTVSS
VL: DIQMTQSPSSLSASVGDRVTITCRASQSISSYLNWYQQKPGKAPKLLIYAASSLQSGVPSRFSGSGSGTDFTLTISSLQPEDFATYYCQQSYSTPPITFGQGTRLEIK

- % bound RU w/ no inhibitor [1]: 95%
- % bound RU w/ no inhibitor [2]: 107%
- % bound RU w/ no inhibitor [3]: 100%
- % bound RU w/ no inhibitor [4]: 105%
- % bound RU w/ no inhibitor [5]: 76%
- % bound RU w/ no inhibitor [6]: 115%
- % bound RU w/ no inhibitor [7]: 89%
- % bound RU w/ no inhibitor [8]: 129%
B6: H4H10446P2 (antibody, human IgG4, V domains shown)
VH: QVQLQESGPGLVKPSETLSLTCTVSGGSFSSHFWSWIRQPPGKGLEWIGYILYTGGTSFNPSLKSRVSMSVGTSKNQFSLKLSSVTAADTAVYYCARARSGITFTGIIVPGSFDIWGQGTMVTVSS
VL: not shown
notes: also called mAb2

- % bound RU w/ no inhibitor [11]: 3%
- % bound RU w/ no inhibitor [12]: 3%
- % bound RU w/ no inhibitor [13]: 77%
- % bound RU w/ no inhibitor [14]: 94%
- % bound RU w/ no inhibitor [15]: 100%
- % bound RU w/ no inhibitor [16]: 115%
- % bound RU w/ no inhibitor [17]: 7%
- % bound RU w/ no inhibitor [18]: 85%
- % bound RU w/ no inhibitor [19]: 98%
- % bound RU w/ no inhibitor [20]: 3%
- % bound RU w/ no inhibitor [21]: 54%
- % bound RU w/ no inhibitor [22]: 100%
- IC50, inhibition of 4 nM Activin AC in A204/CAGAx12-Luc luciferase bioassay [23]: 5.6 nM
- IC50, inhibition of 100 pM Activin A in A204/CAGAx12-Luc luciferase bioassay [10]: 4.7e-11 M
- IC50, inhibition of 30 pM Activin AB in A204/CAGAx12-Luc luciferase bioassay [24]: 8.2e-09 M
- % bound RU w/ no inhibitor [25]: 3%
- % bound RU w/ no inhibitor [26]: 118%
- % bound RU w/ no inhibitor [27]: 108%
- % bound RU w/ no inhibitor [28]: 111%
B8: H4H10446P2 (antibody, human IgG4, V domains shown)
VH: B6 VH
VL: not shown
notes: also called mAb2
